Laboratory results from patent EP4814014A1, “BINDING MOLECULE AND ANTIBODY-DRUG CONJUGATE AND USE THEREOF” (priority 2023, dated 2025).
Residue numbers refer to the chain shown, from its start.

Tests used:
[1] = test system: EBC-1; test: Cell killing assay of ADCs (CCK8), EBC-1; format: cell-based, human; conditions: Table 10A; Target cell: EBC-1; 3-5 days
Description: Killing of target cells MDA-MB-468, EBC-1, and NCI-H1975 cells (Cell Bank of the Chinese Academy of Sciences) by the ADC molecules formed by conjugating the […] anti-EGFR/cMet antibody molecules described above to a toxin was assayed by the […].
The cells (100 µL, 1 × 10^4) resuspended in a cell culture medium were seeded into each well of a 96-well plate and cultured in an incubator at 37 °C with 5% CO2 overnight. The next day, 100 µL of serially diluted V-20-Fc-PEG-EVC-MMAE, V-23-Fc-PEG-EVC-MMAE, and V-26-Fc-PEG-EVC-MMAE, as well as positive control ADCs ABBV399 and AZD9592 were added to corresponding wells. The cells were cultured for another 3-5 days. Then, 20 µL of CCK8 (Shanghai Life iLab Biotech, Cat. No. AC11L054) was added to each well. The mixtures were cultured in an incubator at 37 °C with 5% CO2 until color development. The absorbance at 450 nm was recorded using a microplate reader (Molecular Device, SpectraMax M5).
The cell viability was calculated by the following formula: percentage cell viability = [(As - Ab) / (Ac - Ab)] × 100. As = experimental well absorbance (cells, culture medium, CCK8, and ADCs); Ab = blank well absorbance (culture medium and CCK8); Ac = control well absorbance (cells, culture medium, and CCK8).

[2] = biological target: T1, Human EGFR antigen (SPR of Example 4.4) (human, UniProt P00533 25-645); test: SPR method II, antibody captured on Protein A chip, antigen injected, 1:1 model
[3] = biological target: T2, Cyno EGFR antigen (SPR of Example 4.4) (cynomolgus monkey, UniProt A0A2K5WK39 25-645); test: as above
[4] = biological target: T3, human cMet on cells (human, UniProt P08581 25-1390); test: FACS, VHH-His on MKN45 cells
T3 construct: whole, on cells; Cell lines: CHO-S-cMet, CHOK1-hucMet, EBC-1, MKN45, NCI-H1975; the cell line is named under assay; also called CHO-S-cMet; CHOK1-hucMet

[5] = biological target: T3, human cMet on cells; test: FACS, VHH-His on MKN45 cells; remark: listed apart in the source
[6] = biological target: T4, Human cMet antigen (human, UniProt P08581 25-932); test: SPR method II, antibody captured on Protein A chip, antigen injected, 1:1 model
T4 construct: treated as one molecule; also called Human cMet-His antigen

[7] = biological target: T5, Cynomolgus monkey cMet antigen (cynomolgus monkey, UniProt A0A2K5UM36 25-932); test: as above
T5 construct: treated as one molecule; also called cynomolgus monkey cMet-His antigen; Cyno cMet

[8] = biological target: T3, human cMet on cells; test: FACS competition on EBC-1 cells, HGF-His as the ligand detected, VHH-Fc from 100 nM
[9] = biological target: T4, Human cMet antigen; test: ELISA, antigen coated at 1 ug/mL, VHH-Fc titrated
[10] = biological target: T5, Cynomolgus monkey cMet antigen; test: ELISA, antigen coated at 1 ug/mL, VHH-Fc titrated
[11] = biological target: T3, human cMet on cells; test: FACS on EBC-1 cells
[12] = biological target: T3, human cMet on cells; test: FACS, VHH-His on CHOK1-hucMet cells
[13] = biological target: T3, human cMet on cells; test: FACS, VHH-His on CHOK1-hucMet cells; remark: listed apart in the source
[14] = biological target: T3, human cMet on cells; test: FACS, VHH-His on MKN45 cells; remark: listed apart in the source
[15] = biological target: T4, Human cMet antigen; test: SPR method I, antigen on CM5 chip, VHH-His injected, 1:1 model
[16] = biological target: T5, Cynomolgus monkey cMet antigen; test: as above
[17] = biological target: T3, human cMet on cells; test: FACS, VHH-His on EBC-1 cells
[18] = biological target: T3, human cMet on cells; test: FACS, VHH-His on EBC-1 cells (cell column empty in this row)
[19] = biological target: T6, human EGFR on cells (human, UniProt P00533 25-1210); test: FACS, VHH-His on CHOK1-huEGFR cells
T6 construct: whole, on cells; the cell line is named under assay; also called CHO-S-EGFR; CHOK1-huEGFR

[20] = biological target: T6, human EGFR on cells; test: FACS, VHH-His on MDA-MB-468 cells
[21] = biological target: T1, Human EGFR antigen (SPR of Example 4.4); test: SPR method I, antigen on CM5 chip, VHH-His injected, 1:1 model
[22] = biological target: T2, Cyno EGFR antigen (SPR of Example 4.4); test: as above

T3 sequence (P08581 25-1390): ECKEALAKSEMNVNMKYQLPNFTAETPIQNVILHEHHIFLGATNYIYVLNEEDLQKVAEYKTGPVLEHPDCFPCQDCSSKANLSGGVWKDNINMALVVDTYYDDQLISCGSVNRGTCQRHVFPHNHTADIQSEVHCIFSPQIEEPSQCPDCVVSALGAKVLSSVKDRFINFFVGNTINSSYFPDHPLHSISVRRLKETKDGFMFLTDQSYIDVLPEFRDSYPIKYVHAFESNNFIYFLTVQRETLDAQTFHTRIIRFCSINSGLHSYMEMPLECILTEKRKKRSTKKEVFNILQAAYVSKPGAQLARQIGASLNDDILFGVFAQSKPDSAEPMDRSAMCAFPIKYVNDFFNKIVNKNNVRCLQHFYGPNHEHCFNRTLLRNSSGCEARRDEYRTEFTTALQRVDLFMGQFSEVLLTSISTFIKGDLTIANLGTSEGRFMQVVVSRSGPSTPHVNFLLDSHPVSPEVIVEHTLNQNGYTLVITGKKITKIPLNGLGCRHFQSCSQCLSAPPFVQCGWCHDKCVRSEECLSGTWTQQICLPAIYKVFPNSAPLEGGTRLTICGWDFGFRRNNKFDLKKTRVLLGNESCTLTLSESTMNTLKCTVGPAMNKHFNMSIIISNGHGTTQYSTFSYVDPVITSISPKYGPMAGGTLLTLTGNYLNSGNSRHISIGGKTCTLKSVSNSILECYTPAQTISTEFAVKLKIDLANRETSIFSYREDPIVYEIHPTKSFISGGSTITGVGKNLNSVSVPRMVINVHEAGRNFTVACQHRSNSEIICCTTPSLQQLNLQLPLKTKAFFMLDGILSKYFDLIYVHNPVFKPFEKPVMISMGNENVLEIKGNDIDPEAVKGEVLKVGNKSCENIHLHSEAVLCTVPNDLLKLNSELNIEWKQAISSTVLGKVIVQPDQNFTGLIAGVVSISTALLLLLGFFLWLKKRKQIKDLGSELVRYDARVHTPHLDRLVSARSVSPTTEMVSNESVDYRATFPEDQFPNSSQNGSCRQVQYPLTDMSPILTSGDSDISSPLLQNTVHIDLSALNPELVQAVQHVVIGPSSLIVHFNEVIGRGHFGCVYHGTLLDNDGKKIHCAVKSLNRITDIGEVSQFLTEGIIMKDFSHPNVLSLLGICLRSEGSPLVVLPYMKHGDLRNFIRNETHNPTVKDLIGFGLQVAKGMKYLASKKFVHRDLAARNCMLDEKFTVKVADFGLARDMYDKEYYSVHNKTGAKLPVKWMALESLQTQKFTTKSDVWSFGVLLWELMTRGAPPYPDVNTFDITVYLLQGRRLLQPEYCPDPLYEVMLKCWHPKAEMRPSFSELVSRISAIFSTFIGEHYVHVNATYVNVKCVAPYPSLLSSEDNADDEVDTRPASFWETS
T5 sequence (A0A2K5UM36 entry or part of it limits assumed, form in doubt): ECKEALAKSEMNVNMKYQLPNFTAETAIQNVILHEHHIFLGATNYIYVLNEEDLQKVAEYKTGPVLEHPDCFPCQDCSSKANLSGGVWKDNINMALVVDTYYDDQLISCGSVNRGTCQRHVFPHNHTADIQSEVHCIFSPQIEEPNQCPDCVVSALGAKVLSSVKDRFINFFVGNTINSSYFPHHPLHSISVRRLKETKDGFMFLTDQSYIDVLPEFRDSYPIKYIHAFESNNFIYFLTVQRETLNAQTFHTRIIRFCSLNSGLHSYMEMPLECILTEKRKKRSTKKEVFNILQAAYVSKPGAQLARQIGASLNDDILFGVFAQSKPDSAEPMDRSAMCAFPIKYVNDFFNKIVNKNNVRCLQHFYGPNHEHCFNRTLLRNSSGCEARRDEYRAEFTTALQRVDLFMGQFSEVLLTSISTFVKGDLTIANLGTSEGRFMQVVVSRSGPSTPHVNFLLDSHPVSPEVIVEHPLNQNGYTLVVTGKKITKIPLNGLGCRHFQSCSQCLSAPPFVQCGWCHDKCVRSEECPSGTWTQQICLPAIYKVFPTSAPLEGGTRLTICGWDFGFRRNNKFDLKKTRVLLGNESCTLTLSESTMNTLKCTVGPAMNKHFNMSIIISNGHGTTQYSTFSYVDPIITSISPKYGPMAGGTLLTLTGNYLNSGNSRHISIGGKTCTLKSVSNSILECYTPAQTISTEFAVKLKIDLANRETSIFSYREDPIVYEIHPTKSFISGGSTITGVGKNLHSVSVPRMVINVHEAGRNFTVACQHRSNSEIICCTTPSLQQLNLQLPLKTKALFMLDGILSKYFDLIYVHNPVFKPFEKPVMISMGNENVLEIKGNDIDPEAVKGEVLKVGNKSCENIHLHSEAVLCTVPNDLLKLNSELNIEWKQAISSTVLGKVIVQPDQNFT
T4 sequence (P08581 25-932): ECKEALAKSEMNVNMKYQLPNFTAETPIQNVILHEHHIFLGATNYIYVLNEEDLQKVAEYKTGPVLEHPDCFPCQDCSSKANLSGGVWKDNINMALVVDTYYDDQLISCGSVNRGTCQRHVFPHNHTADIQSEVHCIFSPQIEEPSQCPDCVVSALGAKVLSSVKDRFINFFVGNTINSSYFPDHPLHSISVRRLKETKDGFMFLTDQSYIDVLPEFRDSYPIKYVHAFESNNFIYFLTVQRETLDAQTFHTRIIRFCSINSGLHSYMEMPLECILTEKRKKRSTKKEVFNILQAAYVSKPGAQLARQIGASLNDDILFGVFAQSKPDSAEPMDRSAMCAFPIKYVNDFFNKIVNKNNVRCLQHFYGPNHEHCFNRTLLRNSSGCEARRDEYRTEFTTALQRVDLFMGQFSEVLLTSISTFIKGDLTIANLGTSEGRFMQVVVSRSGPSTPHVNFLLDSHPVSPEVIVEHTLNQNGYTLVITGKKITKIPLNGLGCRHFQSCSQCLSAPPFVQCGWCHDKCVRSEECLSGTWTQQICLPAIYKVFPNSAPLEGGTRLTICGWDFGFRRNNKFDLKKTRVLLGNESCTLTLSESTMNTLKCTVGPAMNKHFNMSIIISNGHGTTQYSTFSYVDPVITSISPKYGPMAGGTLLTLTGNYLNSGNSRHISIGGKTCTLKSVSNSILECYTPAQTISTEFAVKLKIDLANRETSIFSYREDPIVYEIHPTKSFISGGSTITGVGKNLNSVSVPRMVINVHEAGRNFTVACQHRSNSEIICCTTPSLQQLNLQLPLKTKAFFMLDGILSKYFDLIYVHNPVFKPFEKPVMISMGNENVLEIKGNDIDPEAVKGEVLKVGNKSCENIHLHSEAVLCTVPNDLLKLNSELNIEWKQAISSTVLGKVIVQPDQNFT

## ABBV399 [reference compound]
[1]
  IC50: 0.194 nM

B1: V-F42 (hu9B8_Fc)2 (Fc fusion, not shown: a dimerising Fc or GST)
chain: EVQLLESGGGLVQPGGSLRLSCAASGLTFSYYAMAWFRQAPGKEREFVAAINWNQGNTYNTDSVKGRFTISRDNSKNTVYLQMNSLTPEDTAVYYCAVRYNQASYLVARSSDYNYWGQGTLVTVSS
notes: dimeric VHH with an Fc tag at the C-terminus
[2]
  Kd: 11.9 nM
  koff: 0.000392 s⁻¹
  kon: 33000 M⁻¹ s⁻¹
[3]
  Kd: 2.05 nM
  koff: 8.04e-05 s⁻¹
  kon: 39200 M⁻¹ s⁻¹

B2: 7A12-M2 (VHH, not shown: small tags and cut ends)
VHH: EVQLVESGGGLIQPGGSLRLSCKASGNIFSSNHMGWFRQAPGKQLEWVAYITTREITNYADSVKGRFTISRDNSKNTVYLQMNNLRSEDTAVYYCIADQSREIRRSWGQGTLVTVSS
[4]
  Maximum MFI value: 36700 MFI

B3: 7A12-M1 (VHH, not shown: small tags and cut ends)
VHH: B2 VHH with I12V, K23A, F37V, Q44G, N84S, S87A
notes: Humanized anti-cMet VHH-His
[5]
  EC50: 88.1 nM
  Maximum MFI value: 56600 MFI

B4: Reference benchmark antibody ABT-700 (antibody, V domains shown)
VH: QVQLVQSGAEVKKPGASVKVSCKASGYIFTAYTMHWVRQAPGQGLEWMGWIKPNNGLANYAQKFQGRVTMTRDTSISTAYMELSRLRSDDTAVYYCARSEITTEFDYWGQGTLVTVSS
VL: DIVMTQSPDSLAVSLGERATINCKSSESVDSYANSFLHWYQQKPGQPPKLLIYRASTRESGVPDRFSGSGSGTDFTLTISSLQAEDVAVYYCQQSKEDPLTFGGGTKVEIKR
[6]
  Kd: 0.681 nM
  koff: 7.38e-05 s⁻¹
  kon: 108000 M⁻¹ s⁻¹
[7]
  Kd: 0.584 nM
  koff: 7.14e-05 s⁻¹
  kon: 122000 M⁻¹ s⁻¹

B5: V-n7A12 anti-cMet VHH-Fc (Fc fusion, not shown: a dimerising Fc or GST)
chain: EVQLVESGGGLVQAGGSLRLSCVASGNIFSSNHMGWFRQAPGKQREFIAYITTREITNYADSVKGRFTISRDNTKNTVYLQMNVLKPEDTAVYYCIADQSREIRRSWGQGTQVTVSS
notes: Bivalent VHH-Fc
[8]
  MFI value at the highest concentration: 40600 MFI
  ratio of MFI value at the highest concentration to that at the lowest concentration: 2.22
[9]
  EC50: 0.066 nM
[10]
  EC50: 0.063 nM

B6: anti-cMet biepitopic M-1 molecule (bispecific antibody, V domains shown)
V domain 1: QSQLAESGGGLVQSGGSLGLSCVASGFTISRSIMSWYRQPPGKERDWVASIGSAGNTNYVDSVKGRFTISRDVAKNTVYLQMNSLKPEDTAVYYCKTTLAVSFSEYWGQGTQVTVSS
V domain 2: B2 VHH with P14A, K23T, N32Y, L45R, W47F, V48I
notes: Asymmetric double-chain form
[11]
  binding result: binds

B7: 7A12-M3 (VHH, not shown: small tags and cut ends)
VHH: B2 VHH with K23T, V48I, L112Q
[4]
  Maximum MFI value: 57400 MFI

B8: 7A12-M4 (VHH, not shown: small tags and cut ends)
VHH: B2 VHH with P14A, K23T, L45R, W47F, V48I
notes: Humanized anti-cMet VHH-His
[5]
  EC50: 4.11 nM
  Maximum MFI value: 44700 MFI

B9: V-n7A12 anti-cMet VHH-His (VHH, not shown: small tags and cut ends)
VHH: B5 chain
notes: Monovalent parent VHH
[5]
  EC50: 3.76 nM
  Maximum MFI value: 35600 MFI
[12]
  EC50: 1.94 nM
[13]
  EC50: 1.01 nM
  Maximum MFI value: 74200 MFI
[14]
  EC50: 3.76 nM
  Maximum MFI value: 35600 MFI
[15]
  Kd: 0.301 nM
  koff: 0.000153 s⁻¹
  kon: 509000 M⁻¹ s⁻¹
[16]
  Kd: 96 nM
  koff: 0.00439 s⁻¹
  kon: 45800 M⁻¹ s⁻¹

B10: dpzn7A12m4.ml_1.m1 (VHH, not shown: small tags and cut ends)
VHH: B2 VHH with I12V, K23T, N32Y, L45R, W47F, V48I, V78L, N84S, S87A
notes: Humanized + PTM removal + secondary immunogenicity removal, anti-cMet VHH-His; also called hu7A12
[12]
  EC50: 2.1 nM

B11: V-n9A2 anti-cMet VHH-Fc (Fc fusion, not shown: a dimerising Fc or GST)
chain: B6 V domain 1
notes: Bivalent VHH-Fc
[8]
  MFI value at the highest concentration: 82200 MFI
  ratio of MFI value at the highest concentration to that at the lowest concentration: 1.12
[9]
  EC50: 0.108 nM
[10]
  EC50: 0.105 nM

B12: V-n9A2 anti-cMet VHH-His (VHH, not shown: small tags and cut ends)
VHH: B6 V domain 1
notes: Monovalent parent VHH
[17]
  EC50: 1.56 nM
  Maximum MFI value: 291000 MFI
[15]
  Kd: 16 nM
  koff: 0.0029 s⁻¹
  kon: 181000 M⁻¹ s⁻¹
[16]
  Kd: 70.3 nM
  koff: 0.0072 s⁻¹
  kon: 102000 M⁻¹ s⁻¹

B13: VHH11 (VHH, not shown: small tags and cut ends)
VHH: B6 V domain 1 with A5V, Q13K, S14P, G19R, V73N, T77S, V78L, K86R, P87A, Q112L
notes: Humanized 9A2 anti-cMet VHH-His
[18]
  EC50: 2.11 nM

B14: V-n10A1 anti-EGFR VHH-His (VHH, not shown: small tags and cut ends)
VHH: QVQLVESGGGLVQAGGSLRLSCAASGRTGSLHAMGWFRQAPGKERERVATLNLSDGSAVTADSVKGRFTISTDNTKNSVYLQMNSLKPEDTAVYYCTASRSPSGIRYYKPDYWGQGTQVTVSS
notes: Monovalent parent VHH
[19]
  Maximum MFI value: 2760 MFI
[20]
  Maximum MFI value: 5830 MFI
[20]; record 2
  Maximum MFI value: 5160 MFI
[21]
  Kd: 37.4 nM
  koff: 0.0258 s⁻¹
  kon: 691000 M⁻¹ s⁻¹
[22]
  Kd: 17.2 nM
  koff: 0.01 s⁻¹
  kon: 581000 M⁻¹ s⁻¹
